Results published in patent US12441790B2, “Binding proteins to the human thrombin receptor, PAR4” (MONASH UNIVERSITY, priority 2017, dated 2025).
Entries after “also recorded” stand apart in the source; their conditions may differ.

Test system: human isolated platelets
Assay: Platelet phosphatidylserine exposure (annexin V binding)
Format: cell-based
Conditions: pre-treatment 5 min; regardless of donor genotype
Procedure: Platelet surface phosphatidylserine (PS) exposure was determined by measuring annexin V binding. Human isolated platelets (5×10^7/ml) were pre-treated with 5A.RC3 (5 mins) at the concentrations indicated and were incubated with Alexa Fluor 488-conjugated annexin-V (1:100) prior to stimulation with thrombin. After stimulation, platelets were resuspended in modified Tyrode's buffer for flow cytometry analysis (FACSCalibur, BD Biosciences).
Pro-coagulant activity in isolated human platelets was examined by measuring phosphatidylserine (PS) exposure in response to stimulation with PAR4-AP or thrombin (1 U/ml) The percentage of annexin V positive cells was measured. The platelets were pre-incubated with 5A.RC3 for 5 mins. […] The 10 min (final data point) is shown for simplicity.

B1: 5A.RC3: anti-PAR4 monoclonal antibody, IgG2a/K, VH SEQ ID NO:11 and VL SEQ ID NO:12 (antibody, V domains shown)
VH: QVQLVESGGGVVQPGRSLRLSCAASGFTLSNYGMHWVRQAPGKGLEWVSVIWYDGSNKHYADSVKGRFTISRDNSKNTLYLQMNSLRAEDTAVYYCARESIVEVLPPFDYWGQGTLVTVSS
VL: KIVLTQSPGTLSLSPGERVTLSCRASQRVRNNYLAWFQQKPGQAPRLFIYGASSRATGIPDRFSGSGSGTDFIFTISRLEPEDFAVYYCQQYGNSYTFGQGTKLEIK
modifications: VH of 5A.RC3; VL of 5A.RC3
inhibition of thrombin-induced phosphatidylserine exposure: dose-dependently inhibited thrombin-induced phosphatidylserine exposure; also recorded: inhibited thrombin-induced phosphatidylserine exposure in a dose dependent manner
